Data published in US9783610B2.
Values joined by “and” are separate entries in the source; they are usually repeats but may differ in a detail not shown here. Equal values may be shown once. Read-outs that look alike come from different tables or passages of the source.

T1: human TEM1 recombinant protein fused to GST (rhTEM1-GST) (human) (UniProt Q9HCU0)
T1 sequence: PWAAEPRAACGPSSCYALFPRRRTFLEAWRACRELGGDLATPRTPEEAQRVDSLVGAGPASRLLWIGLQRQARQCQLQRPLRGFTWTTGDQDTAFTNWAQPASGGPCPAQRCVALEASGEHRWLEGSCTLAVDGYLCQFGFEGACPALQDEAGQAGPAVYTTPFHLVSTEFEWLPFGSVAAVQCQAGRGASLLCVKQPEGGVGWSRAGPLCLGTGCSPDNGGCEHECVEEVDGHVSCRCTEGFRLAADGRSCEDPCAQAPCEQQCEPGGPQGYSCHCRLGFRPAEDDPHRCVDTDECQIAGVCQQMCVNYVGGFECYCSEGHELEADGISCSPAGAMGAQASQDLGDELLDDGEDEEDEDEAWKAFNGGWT

B1: scFv-78 (scFv)
scFv: VQPVLTQPPSLSASPGASASLTCTLRSDINVGSYRISWYQQKPGSPPQYLLSYISDSDKQKGSGVPSRFSGSKDASANAGILLISGLQSEDEADYYCMIWHNSAGVFGGGTKLTVLGGGSSRSSSSGGGGSGGGGQVQLQESGGTLVQPGGSLRLSCEASGFTFSNYAMGWVRQTPGKGLEWLSAIRKSGTTTYYADSVKGRFIISRDNSKNTLYLQMNRLRVGDTATYYCATHPIAGYWGQGTLVTVSSASTKGPS
B2: Anti-TEM1 scFv78-minibody (scFv)
chain: VQPVLTQPPSLSASPGASASLTCTLRSDINVGSYRISWYQQKPGSPPQYLLSYISDSDKQKGSGVPSRFSGSKDASANAGILLISGLQSEDEADYYCMIWHNSAGVFGGGTKLTVLGGGSSRSSSSGGGGSGGGGQVQLQESGGTLVQPGGSLRLSCEASGFTFSNYAMGWVRQTPGKGLEWLSAIRKSGTTTYYADSVKGRFIISRDNSKNTLYLQMNRLRVGDTATYYCATHPIAGYWGQGTLVTVSSASTKGPSVGGGSLIKDKTHTCPPCPAPEL
B3: Anti-TEM1 scFv78-CH3 (protein)
chain: VQPVLTQPPSLSASPGASASLTCTLRSDINVGSYRISWYQQKPGSPPQYLLSYISDSDKQKGSGVPSRFSGSKDASANAGILLISGLQSEDEADYYCMIWHNSAGVFGGGTKLTVLGGGSSRSSSSGGGGSGGGGQVQLQESGGTLVQPGGSLRLSCEASGFTFSNYAMGWVRQTPGKGLEWLSAIRKSGTTTYYADSVKGRFIISRDNSKNTLYLQMNRLRVGDTATYYCATHPIAGYWGQGTLVTVSSASTKGPSVGGGSLIKDKTHTCPPCPSKAKGQPREPQVYTLPPSREEMTKNQVSLTCLVKGFYPSDIAVEWESNGQPENNYKTTPPVLDSDGSFFLYSKLTVDKSRWQQGNVFSCSVMHEALHNHYTQKSLSLSPGK
B4: scFv78 (expressed in 293F cells, purified on anti-HA beads) (scFv)
scFv: B1 scFv

Tests used:
[1] = target: human TEM1 (endosialin, CD248) on cells (human) (UniProt Q9HCU0); experiment: live cell-based ELISA, binding to MS1-TEM1 minus binding to MS1 cells; positive control
[2] = target: T1, human TEM1 recombinant protein fused to GST (rhTEM1-GST) (human); experiment: ELISA on plate-coated rhTEM1-GST, KD=2[Ab']t-[Ab]t
[3] = target: T1, human TEM1 recombinant protein fused to GST (rhTEM1-GST) (human); experiment: ELISA on plate-coated rhTEM1-GST, KD=2[Ab']t-[Ab]t; remark: listed apart in the source
[4] = target: human TEM1 (endosialin, CD248) on cells (human) (UniProt Q9HCU0); experiment: live cell-based ELISA on MS1-TEM1 cells; reference scFv78
[5] = target: human TEM1 (endosialin, CD248) on cells (human) (UniProt Q9HCU0); experiment: live cell-based ELISA, binding to MS1-TEM1 minus binding to MS1 cells, HA-HRP detection

| Molecule | fold lower KD than scFv78 [4] | Kd [5] | further results |
| --- | --- | --- | --- |
| MORAB004 antibody (Morphotek, Inc) | – | – | Kd [1]: 0.27 nM |
| B1 | – | – | Kd [2]: 5.8 nM and 4.5 nM and 2.8 nM; Kd [3]: 4.3 nM |
| B2 | 5 fold | 0.45 nM | – |
| B3 | 5 fold | 0.34 nM | – |
| B4 | – | 2.08 nM | – |
